Results: patent US20150299281A1 (ZEALAND PHARMA A S, published 2015)
Numbered stars: 1 amine (or outer) side, 2 acyl side, 3 side chain; on linkers, the order of the positions; unused ones are H or OH. Square brackets hold non-standard residues; d marks the D form. Side chains are listed from the residue outwards. * marks the point of attachment. γGlu = O=C(O)[C@H](CCC(=O)[*:2])N[*:1]; Palmitoyl = CCCCCCCCCCCCCCCC(=O)*; Aib = CC(C)(N)C(=O)O

T1: human GIP receptor (human, UniProt P48546 22-466)
T1 sequence (looked up): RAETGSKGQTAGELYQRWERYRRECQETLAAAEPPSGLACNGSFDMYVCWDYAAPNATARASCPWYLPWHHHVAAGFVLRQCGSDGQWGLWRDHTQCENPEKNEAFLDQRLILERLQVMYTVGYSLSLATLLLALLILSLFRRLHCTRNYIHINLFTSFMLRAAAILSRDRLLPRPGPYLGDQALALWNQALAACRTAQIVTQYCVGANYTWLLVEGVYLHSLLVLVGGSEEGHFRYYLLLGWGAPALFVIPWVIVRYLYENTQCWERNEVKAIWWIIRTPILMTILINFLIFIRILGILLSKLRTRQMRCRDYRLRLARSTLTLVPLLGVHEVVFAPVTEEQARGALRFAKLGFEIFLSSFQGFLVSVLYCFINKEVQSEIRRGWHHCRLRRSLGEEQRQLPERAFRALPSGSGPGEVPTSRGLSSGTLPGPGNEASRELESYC


Tests used:
human GIP receptor = molecular target: T1, human GIP receptor; experiment: cell-based or functional assay
human GLP-1 receptor = human GLP-1 receptor (human, UniProt P43220 24-463); experiment: cell-based or functional assay

| Binder | EC50, cAMP induction in HEK293 cells expressing human GIP R (human GIP receptor) | EC50, cAMP induction in HEK293 cells expressing human GLP-1 R (human GLP-1 receptor) |
| --- | --- | --- |
| H-Y[Aib]EGTFTSDYSIYLDKKAQRAFVNWLLA[Aib]K-NH2 (SMILES CC[C@H](C)[C@H](NC(=O)[C@H](CO)NC(=O)[C@H](Cc1ccc(O)cc1)NC(=O)[C@H](CC(=O)O)NC(=O)[C@H](CO)NC(=O)[C@@H](NC(=O)[C@H](Cc1ccccc1)NC(=O)[C@@H](NC(=O)CNC(=O)[C@H](CCC(=O)O)NC(=O)C(C)(C)NC(=O)[C@@H](N)Cc1ccc(O)cc1)[C@@H](C)O)[C@@H](C)O)C(=O)N[C@@H](Cc1ccc(O)cc1)C(=O)N[C@@H](CC(C)C)C(=O)N[C@@H](CC(=O)O)C(=O)N[C@@H](CCCCN)C(=O)N[C@@H](CCCCN)C(=O)N[C@@H](C)C(=O)N[C@@H](CCC(N)=O)C(=O)N[C@@H](CCCNC(=N)N)C(=O)N[C@@H](C)C(=O)N[C@@H](Cc1ccccc1)C(=O)N[C@H](C(=O)N[C@@H](CC(N)=O)C(=O)N[C@@H](Cc1c[nH]c2ccccc12)C(=O)N[C@@H](CC(C)C)C(=O)N[C@@H](CC(C)C)C(=O)N[C@@H](C)C(=O)NC(C)(C)C(=O)N[C@@H](CCCCN)C(N)=O)C(C)C) [Compound 5] | 0.031 nM | 0.023 nM |
| H-Y[Aib]EGTFTSDYSIYLDEK([γGlu-Palmitoyl])AAKDFVEWLLSA-NH2 (SMILES CCCCCCCCCCCCCCCC(=O)N[C@@H](CCC(=O)NCCCC[C@H](NC(=O)[C@H](CCC(=O)O)NC(=O)[C@H](CC(=O)O)NC(=O)[C@H](CC(C)C)NC(=O)[C@H](Cc1ccc(O)cc1)NC(=O)[C@@H](NC(=O)[C@H](CO)NC(=O)[C@H](Cc1ccc(O)cc1)NC(=O)[C@H](CC(=O)O)NC(=O)[C@H](CO)NC(=O)[C@@H](NC(=O)[C@H](Cc1ccccc1)NC(=O)[C@@H](NC(=O)CNC(=O)[C@H](CCC(=O)O)NC(=O)C(C)(C)NC(=O)[C@@H](N)Cc1ccc(O)cc1)[C@@H](C)O)[C@@H](C)O)[C@@H](C)CC)C(=O)N[C@@H](C)C(=O)N[C@@H](C)C(=O)N[C@@H](CCCCN)C(=O)N[C@@H](CC(=O)O)C(=O)N[C@@H](Cc1ccccc1)C(=O)N[C@H](C(=O)N[C@@H](CCC(=O)O)C(=O)N[C@@H](Cc1c[nH]c2ccccc12)C(=O)N[C@@H](CC(C)C)C(=O)N[C@@H](CC(C)C)C(=O)N[C@@H](CO)C(=O)N[C@@H](C)C(N)=O)C(C)C)C(=O)O) [Compound 52] | 0.087 nM | 0.18 nM |
| H-Y[Aib]EGTFTSDYSIYLDSK([γGlu-Palmitoyl])AAHDFVEWLLSAGPSSGAPPPS-NH2 (SMILES CCCCCCCCCCCCCCCC(=O)N[C@@H](CCC(=O)NCCCC[C@H](NC(=O)[C@H](CO)NC(=O)[C@H](CC(=O)O)NC(=O)[C@H](CC(C)C)NC(=O)[C@H](Cc1ccc(O)cc1)NC(=O)[C@@H](NC(=O)[C@H](CO)NC(=O)[C@H](Cc1ccc(O)cc1)NC(=O)[C@H](CC(=O)O)NC(=O)[C@H](CO)NC(=O)[C@@H](NC(=O)[C@H](Cc1ccccc1)NC(=O)[C@@H](NC(=O)CNC(=O)[C@H](CCC(=O)O)NC(=O)C(C)(C)NC(=O)[C@@H](N)Cc1ccc(O)cc1)[C@@H](C)O)[C@@H](C)O)[C@@H](C)CC)C(=O)N[C@@H](C)C(=O)N[C@@H](C)C(=O)N[C@@H](Cc1c[nH]cn1)C(=O)N[C@@H](CC(=O)O)C(=O)N[C@@H](Cc1ccccc1)C(=O)N[C@H](C(=O)N[C@@H](CCC(=O)O)C(=O)N[C@@H](Cc1c[nH]c2ccccc12)C(=O)N[C@@H](CC(C)C)C(=O)N[C@@H](CC(C)C)C(=O)N[C@@H](CO)C(=O)N[C@@H](C)C(=O)NCC(=O)N1CCC[C@H]1C(=O)N[C@@H](CO)C(=O)N[C@@H](CO)C(=O)NCC(=O)N[C@@H](C)C(=O)N1CCC[C@H]1C(=O)N1CCC[C@H]1C(=O)N1CCC[C@H]1C(=O)N[C@@H](CO)C(N)=O)C(C)C)C(=O)O) [Compound 53] | 0.062 nM | 0.092 nM |
| H-Y[Aib]EGTFTSDYSIYLEKK([γGlu-Palmitoyl])AAKEFVEWLLSAGPSSGAPPPS-NH2 (SMILES CCCCCCCCCCCCCCCC(=O)N[C@@H](CCC(=O)NCCCC[C@H](NC(=O)[C@H](CCCCN)NC(=O)[C@H](CCC(=O)O)NC(=O)[C@H](CC(C)C)NC(=O)[C@H](Cc1ccc(O)cc1)NC(=O)[C@@H](NC(=O)[C@H](CO)NC(=O)[C@H](Cc1ccc(O)cc1)NC(=O)[C@H](CC(=O)O)NC(=O)[C@H](CO)NC(=O)[C@@H](NC(=O)[C@H](Cc1ccccc1)NC(=O)[C@@H](NC(=O)CNC(=O)[C@H](CCC(=O)O)NC(=O)C(C)(C)NC(=O)[C@@H](N)Cc1ccc(O)cc1)[C@@H](C)O)[C@@H](C)O)[C@@H](C)CC)C(=O)N[C@@H](C)C(=O)N[C@@H](C)C(=O)N[C@@H](CCCCN)C(=O)N[C@@H](CCC(=O)O)C(=O)N[C@@H](Cc1ccccc1)C(=O)N[C@H](C(=O)N[C@@H](CCC(=O)O)C(=O)N[C@@H](Cc1c[nH]c2ccccc12)C(=O)N[C@@H](CC(C)C)C(=O)N[C@@H](CC(C)C)C(=O)N[C@@H](CO)C(=O)N[C@@H](C)C(=O)NCC(=O)N1CCC[C@H]1C(=O)N[C@@H](CO)C(=O)N[C@@H](CO)C(=O)NCC(=O)N[C@@H](C)C(=O)N1CCC[C@H]1C(=O)N1CCC[C@H]1C(=O)N1CCC[C@H]1C(=O)N[C@@H](CO)C(N)=O)C(C)C)C(=O)O) [Compound 54] | 0.037 nM | 0.033 nM |
| H-Y[Aib]EGTFTSDYSIYLDSKAAHDFVEWLLSAGPSSGAPPPS-NH2 (SMILES CC[C@H](C)[C@H](NC(=O)[C@H](CO)NC(=O)[C@H](Cc1ccc(O)cc1)NC(=O)[C@H](CC(=O)O)NC(=O)[C@H](CO)NC(=O)[C@@H](NC(=O)[C@H](Cc1ccccc1)NC(=O)[C@@H](NC(=O)CNC(=O)[C@H](CCC(=O)O)NC(=O)C(C)(C)NC(=O)[C@@H](N)Cc1ccc(O)cc1)[C@@H](C)O)[C@@H](C)O)C(=O)N[C@@H](Cc1ccc(O)cc1)C(=O)N[C@@H](CC(C)C)C(=O)N[C@@H](CC(=O)O)C(=O)N[C@@H](CO)C(=O)N[C@@H](CCCCN)C(=O)N[C@@H](C)C(=O)N[C@@H](C)C(=O)N[C@@H](Cc1c[nH]cn1)C(=O)N[C@@H](CC(=O)O)C(=O)N[C@@H](Cc1ccccc1)C(=O)N[C@H](C(=O)N[C@@H](CCC(=O)O)C(=O)N[C@@H](Cc1c[nH]c2ccccc12)C(=O)N[C@@H](CC(C)C)C(=O)N[C@@H](CC(C)C)C(=O)N[C@@H](CO)C(=O)N[C@@H](C)C(=O)NCC(=O)N1CCC[C@H]1C(=O)N[C@@H](CO)C(=O)N[C@@H](CO)C(=O)NCC(=O)N[C@@H](C)C(=O)N1CCC[C@H]1C(=O)N1CCC[C@H]1C(=O)N1CCC[C@H]1C(=O)N[C@@H](CO)C(N)=O)C(C)C) [Compound 55] | 0.0071 nM | 0.0087 nM |
| YAEGTFTSDYSIALDKKAQRAFVNWLVAAKPSSGAPPPS (Aib at 2 and 29; K(hexadecanoyl-isoGlu) at 17; C-terminal amide) [Compound 36] | – | 0.015 nM |
